According to patent US20110294748A1 (Janssen / Centocor, published 2011):
Ends that are not written are not given here.

B1: peptide-Alkaline phosphatase-His6 fusion protein of clone 6 (other)
chain: AECEWPWLTLELCQSTPEMPVLENRAAQGDITTPGGARRLTGDQTAALRDSLSDKPAKNIILLIGDGMGDSEITAARNYAEGAGGFFKGIDALPLTGQYTHYALNKKTGKPDYVTDSAASATAWSTGVKTYNGALGVDIHEKDHPTILEMAKAAGLATGNVSTAELQGATPAALVAHVTSRKCYGPSATSEKCPGNALEKGGKGSITEQLLNARADVTLGGGAKTFAETATAGEWQGKTLREQAQTRGYQLVSDAASLNSVTEANQQKPLLGLFADGNMPVRWLGPKATYHGNIDKPAVTCTPNPQRNDSVPTLAQMTDKAIELLSKNEKGFFLQVEGASIDKQNHAANPCGQIGETVDLDEAVQRALEFAKKEGNTLVIVTADHAHASQIVAPDTKAPGLTQALNTKDGAVMVMSYGNSEEDSQEHTGSQLRIAAYGPHAANVVGLTDQTDLFYTMKAALGLKVPGGSGGGSGGGSGGGSGTPEMPVLENRAAQGDITTPGGARRLTGDQTAALRDSLSDKPAKNIILLIGDGMGDSEITAARNYAEGAGGFFKGIDALPLTGQYTHYALNKKTGKPDYVTDSAASATAWSTGVKTYNGALGVDIHEKDHPTILEMAKAAGLATGNVSTAELQGATPAALVAHVTSRKCYGPSATSEKCPGNALEKGGKGSITEQLLNARADVTLGGGAKTFAETATAGEWQGKTLREQAQTRGYQLVSDAASLNSVTEANQQKPLLGLFADGNMPVRWLGPKATYHGNIDKPAVTCTPNPQRNDSVPTLAQMTDKAIELLSKNEKGFFLQVEGASIDKQNHAANPCGQIGETVDLDEAVQRALEFAKKEGNTLVIVTADHAHASQIVAPDTKAPGLTQALNTKDGAVMVMSYGNSEEDSQEHTGSQLRIAAYGPHAANVVGLTDQTDLFYTMKAALGLKVPGNSHHHHHH
notes: Tested as bacterial culture supernatant; also called peptide-AP fusion clone 6
B2: peptide-Alkaline phosphatase-His6 fusion protein of clone 5 (other)
chain: TGCDFPELCRGCHPTPEMPVLENRAAQGDITTPGGARRLTGDQTAALRDSLSDKPAKNIILLIGDGMGDSEITAARNYAEGAGGFFKGIDALPLTGQYTHYALNKKTGKPDYVTDSAASATAWSTGVKTYNGALGVDIHEKDHPTILEMAKAAGLATGNVSTAELQGATPAALVAHVTSRKCYGPSATSEKCPGNALEKGGKGSITEQLLNARADVTLGGGAKTFAETATAGEWQGKTLREQAQTRGYQLVSDAASLNSVTEANQQKPLLGLFADGNMPVRWLGPKATYHGNIDKPAVTCTPNPQRNDSVPTLAQMTDKAIELLSKNEKGFFLQVEGASIDKQNHAANPCGQIGETVDLDEAVQRALEFAKKEGNTLVIVTADHAHASQIVAPDTKAPGLTQALNTKDGAVMVMSYGNSEEDSQEHTGSQLRIAAYGPHAANVVGLTDQTDLFYTMKAALGLKVPGGSGGGSGGGSGGGSGTPEMPVLENRAAQGDITTPGGARRLTGDQTAALRDSLSDKPAKNIILLIGDGMGDSEITAARNYAEGAGGFFKGIDALPLTGQYTHYALNKKTGKPDYVTDSAASATAWSTGVKTYNGALGVDIHEKDHPTILEMAKAAGLATGNVSTAELQGATPAALVAHVTSRKCYGPSATSEKCPGNALEKGGKGSITEQLLNARADVTLGGGAKTFAETATAGEWQGKTLREQAQTRGYQLVSDAASLNSVTEANQQKPLLGLFADGNMPVRWLGPKATYHGNIDKPAVTCTPNPQRNDSVPTLAQMTDKAIELLSKNEKGFFLQVEGASIDKQNHAANPCGQIGETVDLDEAVQRALEFAKKEGNTLVIVTADHAHASQIVAPDTKAPGLTQALNTKDGAVMVMSYGNSEEDSQEHTGSQLRIAAYGPHAANVVGLTDQTDLFYTMKAALGLKVPGNSHHHHHH
notes: Tested as bacterial culture supernatant; also called peptide-AP fusion clone 5
B3: PG-peptide fusion of clone 7 (protein G IgG domain with peptide SEQ ID NO: 3 at its C-terminus) (other)
chain: YKLILNGKTLKGETTTEAVDAATAEKVFKQYANDNGVDGEWTYDDATKTFTVTEPFCYSGGPLPYPCTY
notes: also called PG-peptide fusion clone 7
B4: PG-peptide fusion of clone 16 (protein G IgG domain with peptide SEQ ID NO: 12 at its C-terminus) (other)
chain: YKLILNGKTLKGETTTEAVDAATAEKVFKQYANDNGVDGEWTYDDATKTFTVTEAGCPSPMPPVDPGFYSAIVQLCRE
notes: also called PG-peptide fusion clone 16
B5: PG-peptide fusion of clone 12 (protein G IgG domain with peptide SEQ ID NO: 8 at its C-terminus) (other)
chain: YKLILNGKTLKGETTTEAVDAATAEKVFKQYANDNGVDGEWTYDDATKTFTVTESNCPPLDMRLTELCVM
notes: also called PG-peptide fusion clone 12
B6: PG-peptide fusion of clone 6 (protein G IgG domain with peptide SEQ ID NO: 2 at its C-terminus) (other)
chain: YKLILNGKTLKGETTTEAVDAATAEKVFKQYANDNGVDGEWTYDDATKTFTVTEAECEWPWLTLELCQS
notes: also called PG-peptide fusion clone 6
B7: PG-peptide fusion of clone 8 (protein G IgG domain with peptide SEQ ID NO: 4 at its C-terminus) (other)
chain: YKLILNGKTLKGETTTEAVDAATAEKVFKQYANDNGVDGEWTYDDATKTFTVTEPVCPSFCYDQYVCPT
notes: also called PG-peptide fusion clone 8
B8: PG-peptide fusion of clone 14 (protein G IgG domain with peptide SEQ ID NO: 10 at its C-terminus) (other)
chain: YKLILNGKTLKGETTTEAVDAATAEKVFKQYANDNGVDGEWTYDDATKTFTVTEVECDTPSITFSPGLEALFWNTCSP
notes: also called PG-peptide fusion clone 14
B9: PG-peptide fusion of clone 5 (protein G IgG domain with peptide SEQ ID NO: 1 at its C-terminus) (other)
chain: YKLILNGKTLKGETTTEAVDAATAEKVFKQYANDNGVDGEWTYDDATKTFTVTETGCDFPELCRGCHP
notes: also called PG-peptide fusion clone 5
B10: PG-peptide fusion of clone 10 (protein G IgG domain with peptide SEQ ID NO: 6 at its C-terminus) (other)
chain: YKLILNGKTLKGETTTEAVDAATAEKVFKQYANDNGVDGEWTYDDATKTFTVTELSCYDPTLRTLYCHV
notes: also called PG-peptide fusion clone 10
B11: PG-peptide fusion of clone 11 (protein G IgG domain with peptide SEQ ID NO: 7 at its C-terminus) (other)
chain: YKLILNGKTLKGETTTEAVDAATAEKVFKQYANDNGVDGEWTYDDATKTFTVTEHTCFYPTLMPPELCFD
notes: also called PG-peptide fusion clone 11
B12: PG-peptide fusion of clone 9 (protein G IgG domain with peptide SEQ ID NO: 5 at its C-terminus) (other)
chain: YKLILNGKTLKGETTTEAVDAATAEKVFKQYANDNGVDGEWTYDDATKTFTVTEFTCAVYSLSELDCRD
notes: also called PG-peptide fusion clone 9

Target: T1, soluble IGF1R (sIGF1R), extracellular domain of human insulin-like growth factor 1 receptor, carboxy-terminal … (human, UniProt P08069 31-932)
T1 construct: Bought from R&D Systems; GenBank NP-000866 is printed for the whole receptor; also called IFG1R
Experiment: solid phase phage ELISA, phage lysate on coated sIGF1R
Description: Total of 384 individual phage lysates from the panning were tested for binding specificity towards sIGF1R in a solid phase phage ELISA. Briefly, 100 μl/well of 5 μg/ml sIGF1R (R&D Systems, Minneapolis, Minn.) was bound to Black Maxisorp Plates (Nunc, Rochester, N.Y.), 25 μl of phage lysate added, and the reaction was detected using anti-M13-HRP antibody (EMD Biosciences, Gibbstown, N.J.) and POD substrate (Roche, Indianapolis, Ind.), and the signal detected using a TEKAN plate reader. […] Positive lysates were defined as clones with a sIGF1R specific signal that was three fold above the background of the negative control. A total of 13 clones with unique peptide sequences were obtained with confirmed binding to the sIGF1R (Table 1). From these 13 clones, 3 (clones 5, 13 and 16) cross-reacted with the insulin receptor.

Binder	binding result
VECDTPSITFSPGLEALFWNTCSP (peptide, not shown: large carriers, cysteine pairing not given here; also: displayed on phage pIX, Tested as phage lysate) [phage clone 14 (peptide SEQ ID NO: 10 displayed on pIX phage)]	binds
HTCFYPTLMPPELCFD (peptide, not shown: large carriers, cysteine pairing not given here; also: displayed on phage pIX, Tested as phage lysate) [phage clone 11 (peptide SEQ ID NO: 7 displayed on pIX phage)]	binds
AECEWPWLTLELCQS (peptide, not shown: large carriers, cysteine pairing not given here; also: displayed on phage pIX, Tested as phage lysate) [phage clone 6 (peptide SEQ ID NO: 2 displayed on pIX phage)]	binds
FTCAVYSLSELDCRD (peptide, not shown: large carriers, cysteine pairing not given here; also: displayed on phage pIX, Tested as phage lysate) [phage clone 9 (peptide SEQ ID NO: 5 displayed on pIX phage)]	binds
PVCPSFCYDQYVCPT (peptide, not shown: large carriers, cysteine pairing not given here; also: displayed on phage pIX, Tested as phage lysate) [phage clone 8 (peptide SEQ ID NO: 4 displayed on pIX phage)]	binds
TGCDFPELCRGCHP (peptide, not shown: large carriers, cysteine pairing not given here; also: displayed on phage pIX, Tested as phage lysate) [phage clone 5 (peptide SEQ ID NO: 1 displayed on pIX phage)]	binds
DDIDEFLHQLHNLVNNVH (peptide, not shown: large carriers, Tested as phage lysate) [phage clone 17 (peptide SEQ ID NO: 13 displayed on pIX phage)]	binds
PFCYSGGPLPYPCTY (peptide, not shown: large carriers, cysteine pairing not given here; also: displayed on phage pIX, Tested as phage lysate) [phage clone 7 (peptide SEQ ID NO: 3 displayed on pIX phage)]	binds
SNCPPLDMRLTELCVM (peptide, not shown: large carriers, cysteine pairing not given here; also: displayed on phage pIX, Tested as phage lysate) [phage clone 12 (peptide SEQ ID NO: 8 displayed on pIX phage)]	binds
AGCPSPMPPVDPGFYSAIVQLCRE (peptide, not shown: large carriers, cysteine pairing not given here; also: displayed on phage pIX, Tested as phage lysate) [phage clone 16 (peptide SEQ ID NO: 12 displayed on pIX phage)]	binds
LSCYDPTLRTLYCHV (peptide, not shown: large carriers, cysteine pairing not given here; also: displayed on phage pIX, Tested as phage lysate) [phage clone 10 (peptide SEQ ID NO: 6 displayed on pIX phage)]	binds

Target: T1, soluble IGF1R (sIGF1R), extracellular …
Experiment: ELISA, culture supernatant on 2 µg/ml coated sIGF1R, Attophos detection
Description: The binding of purified peptide-AP fusion proteins to sIGF1R was assessed using ELISA against immobilized sIGF1R. Briefly, bacteria transformed with each peptide-AP fusion expression vector were grown overnight and the following day the cultures were clarified by centrifugation at 4,500 rpm, 4° C. The supernatants were collected and 75 μl of each supernatant was assayed for binding to 2 μg/ml sIGF1R immobilized on ELISA plates. The bound peptides were detected using the Attophos Substrate (Roche, Indianapolis, Ind.) following the manufacturer's recommendation and read using a Molecular Devices M5 plate reader.

Binder	binding result
B1	binds
B2	binds

Target: T1, soluble IGF1R (sIGF1R), extracellular …
Experiment: ELISA, serially diluted PG-peptide fusion on coated sIGF1R, one site binding fit
Description: Relative binding affinities of the PG-peptide fusions for sIGF1R were measured using ELISA. The Kds were determined using GraphPad Prism 4 software with a one site binding equation. 100 μl of 2 μg/ml sIGF1R(R&D Systems, Minneapolis, Minn.) in Dulbecco's Phosphate Buffer Saline (DPBS (−/−)) was coated onto a 96 well Black Maxisorp plates (Nunc, Rochester, N.Y.) overnight at 4° C. The plates were washed with TBST and the wells blocked with 200 μl/well Starting Block T20 (TBS) (Pierce, Rockford, Ill.) for 1 hr, room temperature with 300 rpm shaking. 75 μl/well of purified, serially diluted PG-peptide fusions, starting concentration 40 μM, was added into the wells and incubated for 1 h, room temperature with 300 rpm mixing; the volume was brought up to 100 μl with Starting Block T20. The plates were washed 3× with TBST and then probed with 100 μl/well Peroxidase labeled-Rabbit antibody (1:5000) (Rockland, Gilbertsville, Pa.), washed, and the signal was detected using 100 μl/well POD substrate (Roche, Indianapolis, Ind.). Chemiluminescence was detected using a Molecular Devices M5 plate reader.

Binder	EC50 [nM]
B3	1800
B4	8200
B5	1800
B6	1000
B7	1600
B8	850
B9	750
B10	4300
B11	1200
B12	3500
